Experimental data as given in patent US20100233154A1, “TARGETED BINDING AGENTS DIRECTED TO HEPARANASE AND USES THEREOF 463” (MedImmune Limited, priority 2008, published 2010).

Target: cynomolgus heparanase (cynomolgus)
Experiment: cross species capture ELISA, heparanase captured by rabbit anti-heparanase antibody, exhaustive supernatant 1:5, anti-human IgG Fc detection

cynomolgus heparanase (cynomolgus), sequence (chain, as listed by the source): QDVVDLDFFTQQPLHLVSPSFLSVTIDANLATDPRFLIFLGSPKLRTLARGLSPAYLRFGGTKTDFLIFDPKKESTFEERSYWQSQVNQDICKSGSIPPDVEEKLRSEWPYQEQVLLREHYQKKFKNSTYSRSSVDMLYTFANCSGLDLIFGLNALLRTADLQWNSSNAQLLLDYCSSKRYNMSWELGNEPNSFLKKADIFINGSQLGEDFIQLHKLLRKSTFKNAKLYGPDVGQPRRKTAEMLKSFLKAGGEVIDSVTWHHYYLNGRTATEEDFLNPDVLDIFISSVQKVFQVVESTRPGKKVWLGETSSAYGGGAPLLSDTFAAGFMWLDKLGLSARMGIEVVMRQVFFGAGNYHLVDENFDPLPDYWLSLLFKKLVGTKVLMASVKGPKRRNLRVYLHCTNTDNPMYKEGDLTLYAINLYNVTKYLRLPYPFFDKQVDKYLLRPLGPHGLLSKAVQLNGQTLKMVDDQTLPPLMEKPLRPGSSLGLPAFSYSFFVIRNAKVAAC

B1: monoclonal antibody 15A1.2 (antibody, V domains shown)
VH: QVQLVQSGAEVKKPGASVKVSCKVSGYTLTELSMHWVRQAPGKGLEWMGGFDPEDGETIFAQKFQGRVTMTEDTSTDTAYMELSSLRSEDTAVYYCATGLRFLEWFLWGWDVWGQGTTVTVSS
VL: DIQMTQSPSSVSASVGDRVTITCRASQGISNWLAWYQQTPGKAPQLLIYGASSLQSGVPSRFSGSGSGTDFTLTISSLQPEDFATYYCQQADSFPPTFGQGTKVEIK
- OD, binding to heparanase (Cyno): 0.11 OD units
